Measurements from patent publication US20220403332A1, “SELF-ORGANIZING NEURAL ECTODERMAL LINEAGE CELLULAR STRUCTURES, AND COMPOSITIONS AND METHODS RELATING THERETO” (THE ROCKEFELLER UNIVERSITY, priority 2019, published 2022).

Legend:
Format in all cases: cell-based, human
day 7 neuruloid = assay: neuruloid formation with blebbistatin, day 7 immunofluorescence; settings: day 7 neuruloid treated with Blebbistatin 5 μM; stained for DAPI, N-CAD, PAX6, COL4 (FIG. 12E)
Description: FIG. 12—related to FIG. 6. (A) RUES2 and 56CAG background distribution within the main cell populations found in the neuruloid. All clusters are well represented in either background although 56CAG has a higher relative proportion of NC and placode cells. (B) Gene ontology analyses using DAVID (www.david.ncifcrf.gov) for NE- and NC-specific DEG between RUES2 and 56CAG. (C) Violin plots showing the distribution of normalized gene expression values for the genes in FIGS. 6B and 6C. (D) qPCR validation of the down-regulation of WNT/PCP and cytoskeleton-associated genes in the 56CAG neuruloid versus WT RUES2. (E) Representative image of a day 7 neuruloid treated with Blebbistatin (5 μM) and stained for DAPI, N-CAD, PAX6, and COL4. (Top) side view, (Bottom) top view.
In order to unravel the molecular mechanisms underlying the morphogenetic defect, single-cell RNA-seq data of neuruloids in WT and 56CAG background was explored. All major cell populations found in the WT neuruloid were also present in the 56CAG background, supporting the lack of influence on fate specification (FIG. 12A). […] Using Seurat to identify differentially expressed genes (DEG) between 56CAG and RUES2 cell lines, 499 misregulated genes specific to the NE (adjusted p-value ≤0.05 and a minimum percentage difference in cells expressing the gene ≥10%) and 663 specific for the NC population was found (FIG. 6E). […]

pSMAD1 = assay: signaling dynamics time-course after BMP4 presentation (immunofluorescence, western blot)
Description: FIG. 4 depicts coupling of cell fate specification with a two-step morphogenesis mechanism during neuruloid formation. (A) (Top) time course immunofluorescence analysis of the neuruloid from day 3 to 4. Day 3 micropattern colonies were treated with BMP4 (3 ng/ml) for 1, 3, 5, 10, and 24 hours then stained with PAX6, pSMAD1, and TFAP2A. (Bottom Left) Western blot analysis of the micropattern colonies treated with BMP as above. Sample were stained with anti-pSMAD1/5 antibody. Anti-total SMAD antibody was used as a control. (Bottom Right) Quantification of the western blot analysis. (B) Time-lapse video microscopy imaging of neuruloid formation from day 3 to 6 using the live reporter line (PAX6::H2B-Citrin and SOX10::H2B-tdTomato). Images were recorded every 30 min from day 3 to the end of day 5 (66 hours total). Representative images are shown (a; first image of day 3, b; first image of day 4, c; first image of day 5, d; last image of day 5). […] (E) Associated quantification of PAX6, SIX1, and SOX10 area of the neuruloid treated with indicated drugs. […]
To uncover the molecular mechanisms of neuruloid self-organization, the signaling dynamics over a time-course after BMP4 presentation was followed. […] Only a few SOX10+ cells were detected during this initial phase, but a large expansion occurred in the SOX10 area concomitant with the PAX6 domain condensation starting at day 5. […]

[1] = test system: 500 μm micropatterned colonies (hESCs, RUES2); assay: neuruloid formation at different BMP4 concentrations, day 7 immunofluorescence; settings: 500 μm colonies at day 7
Description: FIG. 2 depicts self-organization into neuruloids on micropatterns. (A) Schematic of the neuruloid differentiation protocol. (B) Immunofluorescence imaging of 80, 200 and 500 μm of day 7 micropatterned colonies. Samples were stained with DAPI (gray), PAX6 (green), and N-CAD (orange). (C) Immunofluorescence imaging of 500 μm of day 7 micropatterned colonies. Samples were stained with DAPI (gray), PAX6 (green), and COL4 (Collagen IV, orange). Side view of resliced z-stack around PAX6+ center region, colony edge region is also shown. (D) replicates with PAX6 (green) and SOX10 (red). (E) (Left) Immunofluorescence imaging of 500 μm micropatterned colonies at day 7 with different BMP4 concentrations: 0, 3, 13, and 50 ng/ml. Samples were stained with PAX6 (green), SOX10 (red) and cranial placode marker SIX1 (orange). (Right) Quantifications of SIX1 positive cell number. Data are mean±standard deviation. (F) (Top Left) Sketch of the ectodermal compartment at neurulation in vivo. (Top Right) Sketch of the neuruloid on micropattern. (Middle panel) Side view of the day 7 neuruloid with 3 ng/ml of BMP. Samples were stained with DAPI, PAX6, SOX10, SIX1, and non-neural ectoderm maker TFAP2A. Note that the TFAP2A+ also stain a few SOX10 and SIX1 positive cells. The non-neural ectoderm cells are only TFAP2A positive. (Bottom) Top view by multiple z from bottom to top. All scale bars represent 50 μm. […]

Row | Molecule | central neuro-epithelium morphology (opened versus closed) (day 7 neuruloid) | TFAP2A induction (pSMAD1; 24 hours after BMP4 (3 ng/ml) presentation at day 3) | pSMAD1 signaling after BMP4 presentation (pSMAD1; day 3 colonies treated with BMP4 3 ng/ml for 1, 3, 5, 10, 24 hours (FIG. 4A)) | overall spatial distribution of cell types ([1]; BMP4 0, 3, 13 and 50 ng/ml from day 3) | number of SIX1+ cells ([1]; BMP4 0, 3, 13 and 50 ng/ml from day 3 (FIG. 2E, 8H))
1 | Cc1ccc2c(c1)C(=O)C1(O)CCN(c3ccccc3)C1=N2 (centres unmarked) [blebbistatin] | phenocopies the opened neuro-epithelium observed in HD and Htt−/− neuruloids |  |  |  | 
2 | BMP4: bone morphogenetic protein (BMP) used as morphogen to drive neuruloid formation (protein, UniProt P12644 293-408, looked up) Bone morphogenetic protein 4: SPKHHSQRARKKNKNCRRHSLYVDFSDVGWNDWIVAPPGYQAFYCHGDCPFPLADHLNSTNHAIVQTLVNSVNSSIPKACCVPTELSAISMLYLDEYDKVVLKNYQEMVVEGCGCR |  | induction of TFAP2A+ in the same domain | pulse of pSMAD1 restricted to the colony edge | independent of BMP4 concentration | peaked at intermediate levels
